Source: patent US20160200782A1 (MOERAE MATRIX, published 2016)

Key:
Test in all cases: cell-based or functional assay
PKCβII(h) = PKCβII(h) (human, UniProt P05771-2 1-673)
CK1γ1(h) = CK1γ1(h) (human, UniProt Q9HCP0 1-422)
Plk1(h) = Plk1(h) (human, UniProt P53350 1-603, limits assumed)
CDK5/p35(h) = CDK5/p35(h) (human, UniProt Q00535 1-292; Q15078 1-307)
SGK(h) = target: T1, SGK(h) (human, UniProt O00141 60-431)
T1 sequence (looked up): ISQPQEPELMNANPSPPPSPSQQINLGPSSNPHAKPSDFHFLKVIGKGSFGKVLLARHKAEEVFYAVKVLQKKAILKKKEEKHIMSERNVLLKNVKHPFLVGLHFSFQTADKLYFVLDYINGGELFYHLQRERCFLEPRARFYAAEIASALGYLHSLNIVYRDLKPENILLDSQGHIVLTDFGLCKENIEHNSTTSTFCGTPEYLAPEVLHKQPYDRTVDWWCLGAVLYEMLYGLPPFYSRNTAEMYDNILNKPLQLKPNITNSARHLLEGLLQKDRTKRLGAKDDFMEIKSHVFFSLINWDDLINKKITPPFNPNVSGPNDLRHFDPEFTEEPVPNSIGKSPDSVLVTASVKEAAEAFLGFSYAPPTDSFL

PKCη(h) = PKCη(h) (human, UniProt P24723 1-683)
cKit(V560G)(h) = cKit(V560G)(h) (human, UniProt P10721 544-976, limits assumed)
Tie2(R849W)(h) = Tie2(R849W)(h) (human, UniProt Q02763 771-1124, limits assumed)
GRK5(h) = GRK5(h) (human, UniProt P34947 1-590)
PKA(h) = PKA(h) (human)
MAPK1(h) = MAPK1(h) (human, UniProt P28482 1-360, limits assumed)
eEF-2K(h) = target: T2, eEF-2K(h) (human, UniProt O00418 1-725, limits assumed)
T2 sequence (looked up): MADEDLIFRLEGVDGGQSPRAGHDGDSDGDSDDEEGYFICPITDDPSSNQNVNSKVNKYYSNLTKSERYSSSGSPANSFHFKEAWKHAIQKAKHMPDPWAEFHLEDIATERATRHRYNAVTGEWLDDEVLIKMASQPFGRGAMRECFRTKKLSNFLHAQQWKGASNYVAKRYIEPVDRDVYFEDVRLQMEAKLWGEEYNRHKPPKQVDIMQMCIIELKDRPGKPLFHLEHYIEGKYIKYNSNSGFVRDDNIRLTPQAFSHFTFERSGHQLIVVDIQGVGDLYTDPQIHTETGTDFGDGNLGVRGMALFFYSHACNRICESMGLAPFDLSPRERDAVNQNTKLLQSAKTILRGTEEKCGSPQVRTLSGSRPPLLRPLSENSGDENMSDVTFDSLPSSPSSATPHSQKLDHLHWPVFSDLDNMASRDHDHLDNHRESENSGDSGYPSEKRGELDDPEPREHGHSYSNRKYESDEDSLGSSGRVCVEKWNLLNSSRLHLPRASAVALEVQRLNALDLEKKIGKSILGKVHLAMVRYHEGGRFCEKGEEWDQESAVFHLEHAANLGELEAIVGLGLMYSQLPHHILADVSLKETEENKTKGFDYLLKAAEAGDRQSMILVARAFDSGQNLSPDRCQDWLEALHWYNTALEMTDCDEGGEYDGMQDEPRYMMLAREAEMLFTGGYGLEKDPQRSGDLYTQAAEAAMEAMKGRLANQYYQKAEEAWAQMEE

CK2α2(h) = CK2α2(h) (human, UniProt P19784 1-350)
JAK3(h) = JAK3(h) (human, UniProt P52333 781-1124, limits assumed)
TLK2(h) = TLK2(h) (human, UniProt Q86UE8 1-772, limits assumed)
CK1γ3(h) = CK1γ3(h) (human, UniProt Q9Y6M4 1-447)
EGFR(T790M)(h) = EGFR(T790M)(h) (human, UniProt P00533 696-1210, limits assumed)
PAK5(h) = PAK5(h) (human, UniProt Q9P286 1-719, limits assumed)
Ab1(M351T)(h) = Ab1(M351T)(h) (human, UniProt P00519 27-1130, limits assumed)
CK1γ2(h) = CK1γ2(h) (human, UniProt P78368 1-415)

Binder: KAFAKLAARLYRKALARQLGVAA [MMI-0400]
- % activity (PKCβII(h)): 75%
- % activity (CK1γ1(h)): 116%
- % activity (Plk1(h)): 119%
- % activity (CDK5/p35(h)): 76%
- % activity (SGK(h)): 54%
- % activity (PKCη(h)): 98%
- % activity (cKit(V560G)(h)): 124%
- % activity (Tie2(R849W)(h)): 108%
- % activity (GRK5(h)): 131%
- % activity (PKA(h)): 119%
- % activity (MAPK1(h)): 100%
- % activity (eEF-2K(h)): 43%
- % activity (CK2α2(h)): 96%
- % activity (JAK3(h)): 122%
- % activity (TLK2(h)): 151%

Binder: FAKLAARLYRKALARQLGVAA [MMI-0300]
- % activity (PKCβII(h)): 82%
- % activity (CK1γ3(h)): 125%
- % activity (CDK5/p35(h)): 79%
- % activity (EGFR(T790M)(h)): 100%
- % activity (SGK(h)): 48%
- % activity (PAK5(h)): 110%
- % activity (Ab1(M351T)(h)): 90%
- % activity (eEF-2K(h)): 91%
- % activity (CK1γ2(h)): 123%
